For one substance, Kd, koff and kon results are on record in article PMC6336407.

Assay [1] addresses IRE1 KR with N-terminal 6× His-tag (human). In words: BLI; His-tagged IRE1 KR coupled to Ni-NTA biosensors; 80S or 60S at 5 to 500 nM in solution; 25°C, 25 mM HEPES pH 7.4, 150 mM KCl, 5 mM MgCl2, 250 µM TCEP; OCTET RED384. In general terms: Biolayer interferometry detects binding as a change in optical thickness at a sensor tip.
Assay [2] addresses IRE1-KR43 labeled with RED dye (human). As to the kind of experiment: MST; 100 nM IRE1-KR43 labeled with RED dye incubated with 80S at various concentrations for 30 min at 25°C; Monolith NT.115, 20% LED power, 40% IR-laser.

Consider purified 80S ribosomes (complex), for which, in assay [1], the dissociation constant Kd (commonly a measure of binding affinity in units of concentration) came to 33.4 nM, the off-rate constant (koff) (commonly the rate constant with which the complex falls apart) came out at 0.0598 s⁻¹ and the kon (commonly the second-order rate constant of association) worked out at 1.81e+06 M⁻¹ s⁻¹. Also, in assay [2], the equilibrium dissociation constant (Kd) amounted to 30 nM.
